Patent US20210246166A1 (Bayer, published 2021)
Numbered stars: 1 amine (or outer) side, 2 acyl side, 3 side chain; on linkers, the order of the positions; unused ones are H or OH. Bridge positions count the residues as written; N and C are the ends. Square brackets hold non-standard residues; d marks the D form. Ends that are not written are not given here. Phe(2,3-F2) = (2S)-3-(2,3-difluorophenyl)-2-aminopropanoic acid, O=C([C@H](Cc1cccc(F)c1F)N[*:1])[*:2]; X3 = (1R,3S)‑3‑(Amino)cyclopentanecarboxylic acid, O=C([C@@H]1CC[C@H](N[*:1])C1)[*:2]; X6 = (S)‑(1-Piperidin-3-yl)‑acetic acid, O=C(C[C@@H]1CCCN([*:1])C1)[*:2]; Ida = iminodiacetic acid, O=C(CN(CC(=O)[*:3])[*:1])[*:2]; Pro(4-spirocPr) = O=C(O)[C@@H]1CC2(CC2)CN1; Oic = O=C(O)[C@@H]1C[C@@H]2CCCC[C@@H]2N1; tBuAla = CC(C)(C)C[C@H](N)C(=O)O; PEG5 = NCCOCCOCCOCCOCCOCCC(=O)O; (3-Me)H = L-3-methylhistidine; Pen = CC(C)(S)[C@H](N)C(=O)O; Tranexamic = tranexamic acid; NMeA = CN[C@@H](C)C(=O)O; Sar = CNCC(=O)O

T1: recombinant human MASP1 active protease (amino acids 297-699, C-terminal His Tag) (human, UniProt P48740 297-699)
T1 sequence: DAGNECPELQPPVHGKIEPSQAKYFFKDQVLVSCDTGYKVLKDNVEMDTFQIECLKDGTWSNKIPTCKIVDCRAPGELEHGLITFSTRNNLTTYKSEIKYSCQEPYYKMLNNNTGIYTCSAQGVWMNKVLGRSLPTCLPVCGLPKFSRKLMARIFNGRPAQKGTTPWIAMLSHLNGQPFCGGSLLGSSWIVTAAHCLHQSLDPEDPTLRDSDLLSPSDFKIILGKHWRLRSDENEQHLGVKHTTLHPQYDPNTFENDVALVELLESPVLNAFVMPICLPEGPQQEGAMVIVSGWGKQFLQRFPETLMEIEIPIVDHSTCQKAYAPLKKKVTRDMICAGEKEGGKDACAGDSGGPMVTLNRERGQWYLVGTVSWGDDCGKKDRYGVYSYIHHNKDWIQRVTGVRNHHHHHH

B1: Example 439: ((N-Me)G)-IC+SRS-((tBu)A)-P-((6S)-5-Azaspiro[2.4]heptane-6-carboxylic acid)-I-(Pen)+IP-NH2 (peptide)
peptide: [Sar]ICSRS[tBuAla]P[Pro(4-spirocPr)]I[Pen]IP-NH2
modifications: disulfide 3-11; N-terminus assumed
SMILES: CC[C@H](C)[C@H](NC(=O)CNC)C(=O)N[C@H]1CSSC(C)(C)[C@@H](C(=O)N[C@H](C(=O)N2CCC[C@H]2C(N)=O)[C@@H](C)CC)NC(=O)[C@H]([C@@H](C)CC)NC(=O)[C@@H]2CC3(CC3)CN2C(=O)[C@@H]2CCCN2C(=O)[C@H](CC(C)(C)C)NC(=O)[C@H](CO)NC(=O)[C@H](CCCNC(=N)N)NC(=O)[C@H](CO)NC1=O
B2: Example 440: ((N-Me)G)-IC+SRS-((2S)-3-(2,3-difluorophenyl)-2-aminopropanoic acid)-PPI-(Pen)+IP-NH2 (peptide)
peptide: [Sar]ICSRS[Phe(2,3-F2)]PPI[Pen]IP-NH2
modifications: disulfide 3-11; N-terminus assumed
SMILES: CC[C@H](C)[C@H](NC(=O)CNC)C(=O)N[C@H]1CSSC(C)(C)[C@@H](C(=O)N[C@H](C(=O)N2CCC[C@H]2C(N)=O)[C@@H](C)CC)NC(=O)[C@H]([C@@H](C)CC)NC(=O)[C@@H]2CCCN2C(=O)[C@@H]2CCCN2C(=O)[C@H](Cc2cccc(F)c2F)NC(=O)[C@H](CO)NC(=O)[C@H](CCCNC(=N)N)NC(=O)[C@H](CO)NC1=O
B3: Example 451: ((N-Me)G)-IC+SRSLP-(Oic)-I-(Pen)+IP-((S)-(1-Piperidin-3-yl)-acetic acid)-OH (peptide)
peptide: [Sar]ICSRSLP[Oic]I[Pen]IP[X6]-OH
modifications: disulfide 3-11; N-terminus assumed
SMILES: CC[C@H](C)[C@H](NC(=O)CNC)C(=O)N[C@H]1CSSC(C)(C)[C@@H](C(=O)N[C@H](C(=O)N2CCC[C@H]2C(=O)N2CCC[C@@H](CC(=O)O)C2)[C@@H](C)CC)NC(=O)[C@H]([C@@H](C)CC)NC(=O)[C@@H]2C[C@@H]3CCCC[C@@H]3N2C(=O)[C@@H]2CCCN2C(=O)[C@H](CC(C)C)NC(=O)[C@H](CO)NC(=O)[C@H](CCCNC(=N)N)NC(=O)[C@H](CO)NC1=O
B4: Example 449: ((N-Me)G)-IC+SRSLP-(Oic)-I-(Pen)+IP-((1R,3S)-3-(Amino)cyclopentanecarboxylic acid)-OH (peptide)
peptide: [Sar]ICSRSLP[Oic]I[Pen]IP[X3]-OH
modifications: disulfide 3-11; N-terminus assumed
SMILES: CC[C@H](C)[C@H](NC(=O)CNC)C(=O)N[C@H]1CSSC(C)(C)[C@@H](C(=O)N[C@H](C(=O)N2CCC[C@H]2C(=O)N[C@H]2CC[C@@H](C(=O)O)C2)[C@@H](C)CC)NC(=O)[C@H]([C@@H](C)CC)NC(=O)[C@@H]2C[C@@H]3CCCC[C@@H]3N2C(=O)[C@@H]2CCCN2C(=O)[C@H](CC(C)C)NC(=O)[C@H](CO)NC(=O)[C@H](CCCNC(=N)N)NC(=O)[C@H](CO)NC1=O

Target: T1, recombinant human MASP1 active protease …
Assay: cell-based or functional assay

| human MASP1 IC50 [nM] | Binder |
| --- | --- |
| 2.9 | [Sar]ICSRSLP[Oic]I[Pen]IP[5‑Azaspiro(2.4)heptane‑1‑carboxylic acid]-OH (disulfide 3-11) [Example 438: ((N-Me)G)-IC+SRSLP-(Oic)-I-(Pen)+IP-((5-Azaspiro[2.4]heptane-1-carboxylic acid)-OH] |
| 0.78 | [NMeA]ICSRS[tBuAla]P[(3R,6R)‑1,1‑Difluoro‑5‑azaspiro(2.4)heptane‑6‑carboxylic acid (enantiomer 1)]I[Pen]IP-NH2 (disulfide 3-11) |
| 2.7 | [Sar]ICSRSLP[Oic]I[Pen]IP[Ida]-OH (disulfide 3-11) [Example 446: ((N-Me)G)-IC+SRSLP-(Oic)-I-(Pen)+IP-(Ida)-OH] |
| 3.2 | B1 |
| 9.2 | [Tranexamic]ICSRS[tBuAla]PPI[Pen]IP[PEG5]-NH2 (disulfide 3-11) [Example 435: (Tranexamic)-IC+SRS-((tBu)A)-PPI-(Pen)+IP-(PEG4(19 atoms))-NH2] |
| 18 | B2 |
| 2.6 | B3 |
| 1.8 | B4 |
| 2.8 | [(3-Me)H]ICSRSLP[Oic]I[Pen]IP-NH2 (disulfide 3-11) [Example 444: ((3-Me)H)-IC+SRSLP-(Oic)-I-(Pen)+IP-NH2] |

Target: recombinant human MASP2 active protease (amino acids 297-686, C-terminal His Tag) (human, UniProt O00187 297-686)
Sequence (O00187 other isoform, or with tags, fused parts or gaps limits assumed): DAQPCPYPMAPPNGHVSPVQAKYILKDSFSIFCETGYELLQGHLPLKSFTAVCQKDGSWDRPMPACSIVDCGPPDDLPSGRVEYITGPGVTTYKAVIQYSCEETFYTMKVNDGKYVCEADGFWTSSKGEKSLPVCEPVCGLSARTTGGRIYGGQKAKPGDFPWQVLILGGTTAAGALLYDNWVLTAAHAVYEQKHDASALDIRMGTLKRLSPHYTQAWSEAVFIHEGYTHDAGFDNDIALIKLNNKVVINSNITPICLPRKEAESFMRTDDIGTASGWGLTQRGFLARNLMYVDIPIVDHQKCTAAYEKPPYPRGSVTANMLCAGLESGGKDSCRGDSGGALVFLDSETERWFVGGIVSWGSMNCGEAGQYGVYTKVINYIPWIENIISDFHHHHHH
Assay: cell-based or functional assay

| human MASP2 IC50 [nM] | Binder |
| --- | --- |
| 83 | [Sar]ICSRSLP[Oic]I[Pen]IP[5‑Azaspiro(2.4)heptane‑1‑carboxylic acid]-OH (disulfide 3-11) [Example 438: ((N-Me)G)-IC+SRSLP-(Oic)-I-(Pen)+IP-((5-Azaspiro[2.4]heptane-1-carboxylic acid)-OH] |
| 74 | [NMeA]ICSRS[tBuAla]P[(3R,6R)‑1,1‑Difluoro‑5‑azaspiro(2.4)heptane‑6‑carboxylic acid (enantiomer 1)]I[Pen]IP-NH2 (disulfide 3-11) |
| 72 | [Sar]ICSRSLP[Oic]I[Pen]IP[Ida]-OH (disulfide 3-11) [Example 446: ((N-Me)G)-IC+SRSLP-(Oic)-I-(Pen)+IP-(Ida)-OH] |
| 15 | B1 |
| 17 | [Tranexamic]ICSRS[tBuAla]PPI[Pen]IP[PEG5]-NH2 (disulfide 3-11) [Example 435: (Tranexamic)-IC+SRS-((tBu)A)-PPI-(Pen)+IP-(PEG4(19 atoms))-NH2] |
| 26 | B2 |
| 61 | B3 |
| 93 | B4 |
| 61 | [(3-Me)H]ICSRSLP[Oic]I[Pen]IP-NH2 (disulfide 3-11) [Example 444: ((3-Me)H)-IC+SRSLP-(Oic)-I-(Pen)+IP-NH2] |
